Consider 2 molecules from patent US20130236473A1, “THERAPEUTIC AGENTS AND PROPHYLACTIC AGENTS FOR SYMPTOMS ACCOMPANYING AUTOIMMUNE DISEASES, INFLAMMATORY DISEASES, ALLERGY DISEASES AND ORGAN TRANSPLANTS” (OSAKA UNIVERSITY, priority 2010, published 2013).

The experiment concerns IL-6 amplifier. The experiment can be described thus: Reference Example 3: effect of growth factors on mIL-6 protein production in BC-1 cells (ELISA). The format is cell-based, mouse. As to conditions: 24 hours, hIL-6/6R and mIL-17A each 50 ng/ml, growth factor added, versus none added. The procedure: 2×10^5 mouse BC-1 cells were cultured for 24 hours in an RPMI 1640 medium containing hIL-6/6R proteins each at 50 ng/ml and mIL-17A protein at 50 ng/ml under the condition in which 100 ng/ml of mouse EGF protein (R&D Systems, Inc.), 100 ng/ml of human HB-EGF protein (R&D Systems, Inc.), 0.1, 1, 10, or 100 ng/ml of mouse epiregulin protein (R&D Systems, Inc.), 50 ng/ml of mouse VEGF protein (R&D Systems, Inc.), 50 ng/ml of mouse FGF7 protein (R&D Systems, Inc.), or 300 ng/ml of mPDGF-CC protein (R&D Systems, Inc.) was separately added. Mouse BC-1 cells cultured under the condition in which only hIL-6/6R proteins and mIL-17A protein were added served as a control group.
After the culture, the production amount of mIL-6 protein under each condition was quantified by an ELISA method in the same manner as in Reference Example 1. FIGS. 5 and 6 show the results.
Background: In an ELISA, binding on a coated surface is turned into a signal by an enzyme label.

B1: FGF7 protein: mouse FGF7 protein (R&D Systems, Inc.), not a ligand of ErbB1 protein (protein, UniProt P36363 32-194, looked up)
Fibroblast growth factor 7: CNDMSPEQTATSVNCSSPERHTRSYDYMEGGDIRVRRLFCRTQWYLRIDKRGKVKGTQEMKNSYNIMEIRTVAVGIVAIKGVESEYYLAMNKEGKLYAKKECNEDCNFKELILENHYNTYASAKWTHSGGEMFVALNQKGIPVKGKKTKKEQKTAHFLPMAIT
B1: the “production amount of mIL-6 protein” value is reported as “no significant difference”.

B2: HB-EGF protein: human HB-EGF protein (R&D Systems, Inc.), ligand of ErbB1 protein (protein)
chain: DLQEADLDLLRVTLSSKPQALATPNKEEHGKRKKKGKGLGKKRDPCLRKYKDFCIHGECKYVKELRAPSCICHPGYHGERCHGLSL
Consider B2, for which the “production amount of mIL-6 protein” value is reported as “significantly (p value <0.01) increased”.
